Test results from article PMC5993284, “Peptide inhibitors of the anaphase promoting-complex that cause sensitivity to microtubule poison” (PLoS ONE, 2018).
Ends that are not written are not given here. * marks the point of attachment. Biotin = O=C1N[C@H]2[C@H](CS[C@H]2CCCCC(=O)*)N1

Legend:
APC/C = assay: Biotinylated peptide pull-down of purified APC/C, Western blot; type: binding, Saccharomyces cerevisiae; settings: 20 μM biotinylated peptide, purified yeast APC/C, 1 h at 4 °C, streptavidin/Avidin beads, n = 3
Experimental: For APC/C purification, the APC/C which contain Cdc16-TAP-tag was isolated from 2 mL arrested yeast lysate by 120 μL IgG sepharose 6 Fast Flow beads (GE Healthcare Life Sciences) and incubate for 2 h at 4 °C on a rotating wheel. Beads were collected washed with 5 mL of APC/C wash buffer (200 mM Hepes pH8.0, 150 mM NaCl, 10% glycerol). Beads were resuspended in 150 μL of APC/C wash buffer contain 17.6 units of AcTEV protease (Invitrogen, Carlsbad, CA) at 4°C for 3 h with pipetting every 20 minutes. The purified APC/C was collected in the flow-through.
For APC/C binding assays, 20 μM biotinylated peptides or 20 μM peptides only as a negative control were incubated with purified APC/C and 100 μL APC/C wash buffer which contains phosphatase inhibitors (200 mM Hepes pH 8.0, 150 mM NaCl, 10% glycerol, 10 mM NaF, 1 mM NaVO4, 5 mM Na-pyrophosphate, 10 mM 2-glycerol phosphate) for 1 h at 4 °C. The mixtures were applied to 120 μL streptavidin beads (Dynabeads MyOne Streptavidin T1, Invitrogen) for 30 min at 4 °C with gentle pipetting every 10 min. Beads were washed with 1 mL of PBST buffer (Phosphate buffer saline and 0.1% Tween 20) three times SDS-PAGE protein sample was added directly. For APC/C binding competition experiments, the biotinylated peptide and 10-fold excess non-biotinylated peptides were added to purified APC/C at same time.
Free D-biotin in 10% DMSO was used for the control binding assays. For pre-coating APC/C with biotin, a modified APC/C purification was performed. 2 mL yeast lysate was incubated with 120 μL IgG Sepharose beads and additional 20.4 μM free biotin or non-biotin solvent as a positive control was added and samples were incubated for 2 h at 4 °C on a rotating wheel. Purified pre-coated APC/C was then removed from the IgG Sepharose following the standard purification procedure. 20 μM biotinylated peptides or 20 μM peptides as a negative control were incubated with pre-coated APC/C and 100 μL APC/C wash buffer which contain phosphatase inhibitors for 1 h at 4 °C. In addition, 20 μM biotinylated peptide was added and incubated with pre-coated APC/C in a non-biotin containing solvent as positive control. Pre-coated APC/C binding procedures were same as above. For pre-coating streptavidin beads with biotin, streptavidin beads were washed in the presence of 10.2 nmol/mL D-biotin in PBST buffer or non-biotin solvent as a positive control before use. Pre-coated streptavidin beads were incubated with purified APC/C-peptide complexes with an extra […] biotin for 30 minutes with gentle pipetting every 10 min at 4 °C.
Proteins were separated in SDS-PAGE gels and then were transferred to PVDF membrane. Blocking was performed by incubating samples in 20 mL PBST with 5% milk at 4 °C. Rabbit anti-tap (Thermo, CAB1001) was used as primary antibodies at a 1:1000 dilution and incubated for 2 hours at RT. Anti-rabbit HRP (Jackson, USA) was then used as secondary antibody at 1:5000 dilution and incubate for 1 hr at RT. Chemiluminescence signals were detected using an ImageQuant LAS 4000 (GE Healthcare Bio-Sciences, USA). For cell cycle timing Western blots anti-MYC and anti-Actin antibodies were employed (ABCAM, UK).

[1] = tested on: APC/C - co-factor Cdc20 interaction; assay: Co-factor Cdc20 binding to APC/C (35S-Cdc20, APC/C on IgG beads); parameters: species or system Saccharomyces cerevisiae; settings: 220 μM peptide, 1 hour, n = 3, vs buffer only
Experimental: (§1) One potential mechanism by which Cdc20-derived peptides and Tyc1 inhibit APC/C may be by blocking and/or disrupting the association between the co-factors Cdc20 and Cdh1 and the APC/C holo-enzyme. To test this hypothesis we produced radio-labeled full-length Cdc20 and Cdh1 co-factors by IVT/T and then incubated them with 220 μM Tyc1, DQ36 or PQ65 and APC/C that had been isolated from mitotic yeast extracts on IgG beads. Unbound peptide was washed away, and the amount of the remaining APC/C bound Cdc20 or Cdh1 was quantified. […] These observations indicate that Tyc1 and Mad2-binding motif peptides inhibit APC/C via a similar mechanism, leading to the disruption of the co-factor-APC/C interaction. This similar mechanism of action predicts that co-ever expression of Tyc1 and a Mad2-binding motif peptide in vivo would likely increase a cell’s sensitivity to microtubule poison.
(§2) Fig 14 Mad2-binding motif peptides and Tyc1 disrupt co-factor binding to APC/C and display an additive phenotype for microtubule poison sensitivity when co-ever expressed. A) ^35S-Methionine radio-labeled full-length Cdc20 or Cdh1 were made by IVT/T and pre-incubated with buffer only as a control, or Tyc1, DQ36 or PQ65 at a final concentration of 220 μM. […] The amount of APC/C-bound co-factor was measured by phosphor-imaging (n = 3). […]

[2] = tested on: APC/C - co-factor Cdh1 interaction; assay: Co-factor Cdh1 binding to APC/C (35S-Cdh1, APC/C on IgG beads); parameters: species or system Saccharomyces cerevisiae; settings: 220 μM peptide, 1 hour, n = 3, vs buffer only
Experimental: as §1, §2

Molecule | binding to APC/C (in words) (APC/C) | amount of APC/C bound co-factor Cdc20 (in words) [1] | amount of APC/C bound co-factor Cdh1 (in words) [2]
DQ36-mut1: DQ36-mut1 where all 5 RILQY residues were changed to alanine AAAAA (Biotin-DMNKAAAAAMPEPPKCSSLRQKSYIMKKRTHYSYQQ) | maintained the ability to pull-down APC/C | – | –
PQ65: 65 amino acid residue peptide called PQ65 (Cdc20 169–232) (peptide, UniProt P26309 169-232, looked up, fragment) PPNASPISHLRAQTKIVFKQNVAEACGLDMNKRILQYMPEPPKCSSLRQKSYIMKKRTHYSYQQ | – | caused a significant decrease in the amount of APC/C bound co-factor Cdc20 and Cdh1 | caused a significant decrease in the amount of APC/C bound co-factor Cdc20 and Cdh1
